Assay [1] addresses T1, IL-18 receptor (IL-18Rα/IL-18Rβ) on cells (HEK-Blue IL18R reporter cells, NK-92, KG-1) (human) (UniProt Q13478).
T1 sequence (looked up) 1: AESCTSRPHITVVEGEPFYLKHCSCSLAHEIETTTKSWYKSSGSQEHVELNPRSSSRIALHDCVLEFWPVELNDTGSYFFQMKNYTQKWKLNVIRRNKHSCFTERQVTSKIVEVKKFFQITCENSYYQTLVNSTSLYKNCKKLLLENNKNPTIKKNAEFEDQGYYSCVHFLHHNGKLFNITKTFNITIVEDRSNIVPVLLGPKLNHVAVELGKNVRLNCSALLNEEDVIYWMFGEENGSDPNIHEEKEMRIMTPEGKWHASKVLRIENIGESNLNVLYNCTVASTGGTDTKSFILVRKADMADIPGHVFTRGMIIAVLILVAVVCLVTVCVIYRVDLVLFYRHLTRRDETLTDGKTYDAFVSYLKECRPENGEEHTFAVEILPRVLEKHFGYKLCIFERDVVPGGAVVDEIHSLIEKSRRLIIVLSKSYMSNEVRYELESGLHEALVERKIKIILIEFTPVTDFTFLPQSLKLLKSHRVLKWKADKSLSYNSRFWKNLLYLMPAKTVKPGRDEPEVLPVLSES
T1 sequence (looked up) 2: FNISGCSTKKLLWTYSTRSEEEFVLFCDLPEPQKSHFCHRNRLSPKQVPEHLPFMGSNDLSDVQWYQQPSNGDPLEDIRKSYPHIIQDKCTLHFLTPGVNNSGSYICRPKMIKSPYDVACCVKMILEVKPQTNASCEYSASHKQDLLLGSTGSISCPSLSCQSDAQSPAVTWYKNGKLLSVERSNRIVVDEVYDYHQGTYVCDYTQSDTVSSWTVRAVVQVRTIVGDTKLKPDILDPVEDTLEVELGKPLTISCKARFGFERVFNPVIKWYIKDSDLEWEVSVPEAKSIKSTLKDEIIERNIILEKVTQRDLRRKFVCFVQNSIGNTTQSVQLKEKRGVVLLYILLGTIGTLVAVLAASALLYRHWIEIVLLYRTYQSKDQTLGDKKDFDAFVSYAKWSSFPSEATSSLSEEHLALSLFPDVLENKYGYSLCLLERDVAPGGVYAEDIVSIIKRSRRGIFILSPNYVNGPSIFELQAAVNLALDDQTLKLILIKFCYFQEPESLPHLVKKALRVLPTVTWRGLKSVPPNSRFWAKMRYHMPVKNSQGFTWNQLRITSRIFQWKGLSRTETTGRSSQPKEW
In words: cell-based or functional assay.

Assay [2] has as its target T2, human IL-18BP-His (human), O95998.
T2 chain: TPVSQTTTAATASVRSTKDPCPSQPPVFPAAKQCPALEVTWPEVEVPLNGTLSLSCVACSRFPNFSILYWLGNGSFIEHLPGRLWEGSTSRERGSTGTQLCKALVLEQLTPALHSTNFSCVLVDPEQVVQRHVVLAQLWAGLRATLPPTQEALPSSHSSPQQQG
Nature of the assay: AlphaLISA of free IL-18BP. To be noted: remark: other sources report otherwise. On the technique in general: Alpha assays give light when donor and acceptor beads are brought close together.

As usually defined, the Kd is the equilibrium constant for the complex coming apart. High values mean weaker binding, low ones tighter binding.

B1: Composition F (Trastuzumab/Herceptin conjugated to IL-18 polypeptide of SEQ ID NO: 60) (protein, part only; not given: trastuzumab heavy and light chains, part only)
chain: YFGKLKSKLSVIRNLNDQVLFIDQGNRPLFEDMTDSDQRDNAPRTIFIISMYADSQPRGMAVTISVKCEKISTLSCENKIISFKEMNPPDNIKDTKSDIIFFQRSVPGHDNKMQFESSSYEGYFLACEKERDLFKLILKKEDELGDRSIMFTVQNED
modifications: chemical linker to the antibody; site not stated
B1 yielded an EC50, IFNγ secretion, NK92 cells in assay [1] of 0.064 nM.

B2: IL-18 polypeptide of SEQ ID NO: 35 (Y01G, F02A, E06K, M51G, K53A, D54A, S55A, T63A), Q14116 37-193 (ligand)
chain: GAGKLKSKLSVIRNLNDQVLFIDQGNRPLFEDMTDSDCRDNAPRTIFIISGYAAAQPRGMAVAISVKCEKISTLSCENKIISFKEMNPPDNIKDTKSDIIFFQRSVPGHDNKMQFESSSYEGYFLACEKERDLFKLILKKEDELGDRSIMFTVQNED
B2 displayed a Kd in assay [2] of 969 nM.
